# Laboratory results as given in US20220363623A1, “IMAGING AND THERAPEUTIC COMPOSITIONS” (priority 2019, published 2022).
# *1 amine or outer side, *2 acyl side, *3 side chain or, on linkers, in order; H or OH if unused. Where a SMILES comes first, the peptide text is derived from it. Bridges are numbered along the chain shown (N, C = ends). Side-chain parts run from the residue outwards. [ ]: non-standard residue; d: D form. The star is where a group is joined. X1 = O=C([C@@H](Cc1ccccc1)N(c1c(NCCCCCN(O)[*:3])c(=O)c1=O)[*:1])[*:2]; X2 = CC(=O)N(O)CCCCCNC(=O)CCC(=O)N(O)CCCCCN*; Suc = O=C(CCC(=O)[*:2])[*:1]
# Tests used:
# Set-up in all cases: species or system mice
# in vivo [1] = details: male, mouse, total radioactivity; for tissue uptake at 1 h: Tumour Uptake % ID/g 1 h pi; for tissue uptake at 18 h: Tumour Uptake % ID/g 18 h pi
# Experimental: (§1) PET-CT imaging and Biodistribution. Male Balb/c nude mice (age 8.5 weeks) or Male NSG mice (age 12 weeks) were inoculated subcutaneously on the right flank with 6×10^6 LNCap cells in PBS:Matrigel (1:1). Mice were weighed and tumours measured twice weekly using electronic callipers. Tumour volume (mm^3) was calculated as length×width×height×π/6. Mice were assigned for imaging and biodistribution studies (tumour volumes: 85-450 mm3). ^89Zr-DFOSq-PSMA tracers were then administered intravenously by tail vein injection to 6 mice. At 1, 2, 4 and 18 hr post injection three mice were anaesthetised using isoflurane and placed on the imaging bed of a G8 PET/CT scanner (Perkin Elmer). A CT scan was performed and followed immediately by a 10 min static PET scan. PET images were reconstructed using the maximal likelihood and expectation maximization (ML-EM) algorithm. PET Images were analysed using VivoQuant (Invicro) and Tumour SUVmax or Tumour SUVmax/background average (TBR) determined. After imaging at 18 hr mice were euthanised and selected tissues were excised, weighed and counted using a Capintec (Captus 4000e) gamma counter. A separate cohort of 3 mice was harvested at 1 hr post injection for biodistribution analysis as above. The data was analysed using GraphPad Prism 7 and differences between tracers analysed using a t-test.
# (§2) ^89Zr Labelled tracers: The ^89Zr radiolabelled PSMA tracers were injected intravenously via tail vein to LNCaP (human PSMA expressing prostate cancer cell line) tumour bearing mice. At 1, 2, 4 and 18 h post-injection the mice were anaesthetised with isoflurane and imaged over 10 min. The representative PET images of mice injected with ^89Zr radiolabelled PSMA tracers at 1 and 18 hr are shown in FIG. 1 and quantitation of the Tumour SUVmax for each tracer is shown in FIG. 2a. […] There was a trend for higher tumour SUVmax for (4) tracer compared to all other tracers at all time points. […] A comparison of tumour uptake values is shown in FIG. 2b and the tissue biodistribution data for the tracers at 1 and 18 hr is summarised in FIG. 3.
# (§3) ^68Ga Labelled tracers: Representative PET images of mice injected with ^68Ga(1) and ^68Ga(4) are shown in FIG. 4 and quantitation of the tumour SUVmax is shown in FIG. 5a. […] Tumour uptake of ^68Ga(4) was 1.6 and 1.8 fold higher than ^68Ga(1) at 1 and 2 hr p.i., respectively. This is consistent with the biodistribution results where tumour % ID/g for ^68Ga(4) was higher than ^68Ga(1) at 1 hr (10.8±1.3 vs 6.5±0.4) and at 2.5 hr (8.6±1.0 vs 4.1±0.5) p.i. […] (6.5±0.4% ID/g at 1 hr vs 4.1±0.5% ID/g at 2.5 hr). In contrast, there was no significant change in ^68Ga(4) tumour retention at 1 and 2.5 p.i. (10.8±1.3% ID/g vs […], FIG. 5b).
# [2] = tested on: LNCaP (human PSMA expressing prostate cancer cell line) tumour; details: mouse, in vivo
# Experimental: as §1, §2, §3
# [3] = tested on: LNCaP (human PSMA expressing prostate cancer cell line) tumour; experiment: in vivo; details: mouse
# Experimental: as §1, §2, §3
# in vivo [4] = details: female, Balb/c nude, mouse, iv, total radioactivity
# Experimental: (§4) PET-CT imaging and Biodistribution of Octreotate/tide Tracers. Female Balb/c nude mice (age 9 weeks) were inoculated subcutaneously on the right flank with 3×10^6 AR42J cells in PBS:Matrigel (1:1). Mice were weighed and tumours measured twice weekly using electronic callipers. Tumour volume (mm^3) was calculated as length^2×width/2. 12 mice were assigned for imaging and biodistribution studies (tumour volumes: 170-550 mm^3). DFOSqTIDE (2.5 MBq) and DFOSqTATE (2.2 MBq) were administered intravenously by tail vein injection to mice on. At 1, 2, 4 and 18 hr post injection three mice were anaesthetised using isoflurane and placed on the imaging bed of a G8 PET/CT scanner (Perkin Elmer). A CT scan was performed which was immediately followed by a 10 min static PET scan. PET images were reconstructed using the maximal likelihood and expectation maximization (ML-EM) algorithm. PET images were analysed using VivoQuant (Invicro) and Tumour SUVmax, Tumour SUVmax/background average (TBR) and Tumour SUVmax/liver average (TLR) determined. After imaging at 18 hr mice were euthanised and selected tissues were excised, weighed and counted using a Capintec (Captus 4000e) gamma counter. A separate cohort of 3 mice was harvested at 1 hr post injection for biodistribution analysis. The data was analysed using GraphPad Prism 7 and differences between tracers analysed using a t-test. The high tumor uptake was confirmed by an ex vivo biodistribution study in the same mouse model where mice were injected with either ^68GaDFOSq-TIDE and ^68GaDFOSq-TATE (2-3 MBq, 1 μg, 0.5 nmol) and then euthanised at either 1 h or 2 h after administration. The amount of injected activity per gram of tissue (% IA/g) in the tumor and major organs was quantified (FIG. 16).
# [5] = tested on: AR42J (rat pancreatic cancer cell line) tumour; experiment: in vivo; details: mouse
# Experimental: as §4, with “t-test.” for “t-test. The high tumor uptake was confirmed by an ex vivo biodistribution study in the same mouse model where mice were injected with either ^68GaDFOSq-TIDE and ^68GaDFOSq-TATE (2-3 MBq, 1 μg, 0.5 nmol) and then euthanised at either 1 h or 2 h after administration. The amount of injected activity per gram of tissue (% IA/g) in the tumor and major organs was quantified (FIG. 16).”
# AR42J (rat pancreatic cancer cell line) tumour bearing Balb/c nude mice as described above were injected intravenously via tail vein injection with ^89ZrDFOSqTATE or ^89ZrDFOSqTIDE (2-3 MBq). At 1, 2, 4 and 18 h post-injection the mice were anaesthetised with isoflurane and imaged over 10 min. At 1 hr after injection of DFOSqTIDE and DFOSqTATE, uptake into kidney, tumour and liver was observed. Representative PET images of mice injected with DFOSqTIDE and DFOSqTATE are shown in FIG. 12 and quantitation of the tumour SUVmax for each radiotracer is summarised in FIG. 13a.
# ^68GaDFOSq-TIDE and ^68GaDFOSq-TATE tracers were injected (2-3 MBq, 1 μg, 0.5 nmol) intravenously via tail vein to AR42J (rat pancreatic cancer cell line) tumour bearing Balb/c nude mice. PET images were acquired at 1 and 2 h post-injection (FIGS. 15a and b). […] Quantification of the uptake in the images using Standard Uptake Value (SUVmax=radioactivity in a tissue/injected activity/BW) confirms the higher uptake for ^68GaDFOSq-TATE (1 h; SUVmax 1.8±0.2, compared to 1.21±0.20, FIG. 15c). The higher tumor uptake of ^68GaDFOSqTATE was also associated with a higher degree of tumor retention at 2 h post injection with only a 5% reduction in SUVmax whereas the tumor SUVmax for ^68GaDFOSqTIDE reduced by 30% ^68GaDFOSqTATE at 2 h post injection. Both tracers clear rapidly from the blood and there is low uptake in bone consistent with stable gallium-68 complexes as well as low uptake in muscle. Both tracers have significant uptake in the kidneys and bladder.
Structure (SMILES),tissue uptake at 1 h (in vivo [1]; iv) [%ID/g],tissue uptake at 18 h (in vivo [1]; iv) [%ID/g],Tumour SUVmax 1 h pi [2],Tumour SUVmax 18 h pi [2],Tumour SUVmax Clearance % [2] [%],also measured
"CC(=O)N(O)CCCCCNC(=O)CCC(=O)N(O)CCCCCNC(=O)CCC(=O)N(O)CCCCCNc1c(NCCN(CCNC(=O)CCCC(=O)NCCCCC(NC(=O)NC(CCC(=O)O)C(=O)O)C(=O)O)CCNC(=O)CCCC(=O)NCCCCC(NC(=O)NC(CCC(=O)O)C(=O)O)C(=O)O)c(=O)c1=O (single isomer, unassigned) [(3), DFOSq-bisPSMA ligand]",5.9,2.5,,,,
"CC(=O)N(O)CCCCCNC(=O)CCC(=O)N(O)CCCCCNC(=O)CCC(=O)N(O)CCCCCNc1c(NCc2ccc(C(=O)NCCCCC(NC(=O)NC(CCC(=O)O)C(=O)O)C(=O)O)cc2)c(=O)c1=O (single isomer, unassigned) [^68Ga(1), metal not drawn]",,,1.0 ± 0.02,,,Gall bladder uptake in PET images [2]: high uptake; Gut uptake in PET images [2]: high uptake; Kidney uptake in PET images [2]: high uptake; LNCap tumour uptake in PET images [2]: moderate uptake; Tumour SUVmax 2 h pi [2]: 0.8 ± 0.05; Tumour Uptake % ID/g 1 h pi [3]: 6.5±0.4 % ID/g; Tumour Uptake % ID/g 2.5 h pi [3]: 4.1±0.5 % ID/g; tissue uptake at 1 h (in vivo [1]): 6.5 ± 0.38 %ID/g; tissue uptake at 2.5 h (in vivo [1]; Tumour Uptake % ID/g 2.5 h pi): 4.1 ± 0.51 %ID/g
"CC(=O)N(O)CCCCCNC(=O)CCC(=O)N(O)CCCCCNC(=O)CCC(=O)N(O)CCCCCNc1c(NCc2ccc(C(=O)NCCCCC(NC(=O)NC(CCC(=O)O)C(=O)O)C(=O)O)cc2)c(=O)c1=O (single isomer, unassigned) [^89Zr(1), metal not drawn]",4.6 ± 0.45,1.7 ± 0.18,1.1 ± 0.12,0.4 ± 0.05,63,
"CC(=O)N(O)CCCCCNC(=O)CCC(=O)N(O)CCCCCNC(=O)CCC(=O)N(O)CCCCCNc1c(NCCN(CCNC(=O)CCCC(=O)NCc2ccc(C(=O)NCCCCC(NC(=O)NC(CCC(=O)O)C(=O)O)C(=O)O)cc2)CCNC(=O)CCCC(=O)NCc2ccc(C(=O)NCCCCC(NC(=O)NC(CCC(=O)O)C(=O)O)C(=O)O)cc2)c(=O)c1=O (single isomer, unassigned) [^89Zr(4), metal not drawn]",9.3 ± 0.33,3.7 ± 1.07,3.2 ± 0.30,1.5 ± 0.18,54,
"CC(=O)N(O)CCCCCNC(=O)CCC(=O)N(O)CCCCCNC(=O)CCC(=O)N(O)CCCCCNc1c(NCCNC(=O)CN(CCN(CC(=O)O)CC(=O)Nc2ccc(C(=O)NCCCCC(NC(=O)NC(CCC(=O)O)C(=O)O)C(=O)O)cc2)CC(=O)O)c(=O)c1=O (stereo not shown) [(2), DFOSq-EDTA-PSMA ligand]",3.2,1,,,,
"CC(=O)N(O)CCCCCNC(=O)CCC(=O)N(O)CCCCCNC(=O)CCC(=O)N(O)CCCCCNc1c(NCCN(CCNC(=O)CCCC(=O)NCc2ccc(C(=O)NCCCCC(NC(=O)NC(CCC(=O)O)C(=O)O)C(=O)O)cc2)CCNC(=O)CCCC(=O)NCc2ccc(C(=O)NCCCCC(NC(=O)NC(CCC(=O)O)C(=O)O)C(=O)O)cc2)c(=O)c1=O (stereo not shown) [(4), DFOSq-bisPhPSMA ligand]",9.3,3.7,,,,
CC(=O)N(O)CCCCCNC(=O)CCC(=O)N(O)CCCCCNC(=O)CCC(=O)N(O)CCCCCNc1c(N[C@H](Cc2ccccc2)C(=O)N[C@H]2CSSC[C@@H](C(=O)N[C@H](C(=O)O)[C@@H](C)O)NC(=O)[C@H]([C@@H](C)O)NC(=O)[C@H](CCCCN)NC(=O)[C@@H](Cc3c[nH]c4ccccc34)NC(=O)[C@H](Cc3ccc(O)cc3)NC2=O)c(=O)c1=O [DFOSqTATE] (H-[X1]([Suc-X2])CY[dW]KTCT-OH; disulfide 2-7),,,,,,tissue uptake at 1 h (in vivo [4]; Tumour Uptake % ID/g 1 h pi): 10.4 ± 0.5 %ID/g; tissue uptake at 18 h (in vivo [4]; Tumour Uptake % ID/g 18 h pi): 4.9 ± 0.8 %ID/g; Tumour SUVmax Clearance % [5]: 58%
"CC(=O)N(O)CCCCCNC(=O)CCC(=O)N(O)CCCCCNC(=O)CCC(=O)N(O)CCCCCNc1c(NCCNC(=O)CN(CCN(CC(=O)O)CC(=O)Nc2ccc(C(=O)NCCCCC(NC(=O)NC(CCC(=O)O)C(=O)O)C(=O)O)cc2)CC(=O)O)c(=O)c1=O (stereo not shown) [^89Zr(2), metal not drawn]",,,0.7 ± 0.03,0.3 ± 0.01,57,"Tumour Uptake % ID/g 1 h pi ([3]; male, iv, 1 h): 3.2 ± 0.72 % ID/g; Tumour Uptake % ID/g 18 h pi ([3]; male, iv, 18 h): 0.9 ± 0.09 % ID/g"
